US20240299504A1, “COMPOSITIONS AND METHODS FOR TREATING ALZHEIMERS DISEASE” (priority 2023, published 2024)

Biological target: T1, PTH receptor (PTH1R), parathyroid hormone type 1 receptor, on mouse astrocytes (mouse, UniProt P41593 27-591)
T1 construct: whole, on cells; Endogenous receptor of mouse cells; not isolated or expressed recombinantly
T1 sequence (looked up): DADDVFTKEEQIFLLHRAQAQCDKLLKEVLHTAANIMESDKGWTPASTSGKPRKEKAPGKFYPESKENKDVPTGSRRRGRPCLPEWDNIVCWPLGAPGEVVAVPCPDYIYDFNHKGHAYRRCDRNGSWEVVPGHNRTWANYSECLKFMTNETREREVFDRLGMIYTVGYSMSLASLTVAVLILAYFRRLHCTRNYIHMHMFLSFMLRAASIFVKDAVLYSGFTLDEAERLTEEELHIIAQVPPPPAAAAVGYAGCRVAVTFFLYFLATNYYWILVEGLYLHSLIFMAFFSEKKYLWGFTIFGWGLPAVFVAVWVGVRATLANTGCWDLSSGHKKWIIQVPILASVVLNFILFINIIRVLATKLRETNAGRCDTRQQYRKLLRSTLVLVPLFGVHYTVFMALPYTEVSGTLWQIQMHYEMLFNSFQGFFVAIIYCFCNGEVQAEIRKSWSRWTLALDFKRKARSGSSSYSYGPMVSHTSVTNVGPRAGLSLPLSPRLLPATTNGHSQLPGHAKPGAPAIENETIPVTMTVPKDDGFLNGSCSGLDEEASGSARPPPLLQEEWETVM
Test: summary sentence of the example; inferred from Biotin-PTH1-34 co-staining with astrocytes, PTH1R expression and signalling in cultured astrocytes

binding result: binds
B1: Parathyroid hormone (human) PTH1-34 (TOCRIS Bioscience, Cat #3011/1) (peptide, UniProt P01270 32-65, looked up)
peptide: SVSEIQLMHNLGKHLNSMERVEWLRKKLQDVHNF
notes: range 1-34; Residues 1-34 count on mature PTH, not on the precursor; also called hPTH1-34; Teriparatide
